Experimental data from the supplement of paper PMC9170038.

System: MS2 coat protein
Test: apparent KD of MS2 coat protein; designed switch direction (-1 OFF switch, 1 ON switch): -1; higher = weaker reporter binding
Procedure, shortened: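 Designed RNA switches were transcribed on Illumina chips by stalled E. coli RNA polymerase and titrated with SNAP-549-labelled MS2 coat protein from 0.7 or 1.5 nM, doubling to 3 µM. Step length ran from 0.8–1.5 h at the lowest concentration to 10–20 min at the highest. The apparent KD is the median over clusters for each design, from curve-fitted normalised cluster fluorescence.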

[1] = input ligand: microRNA oligo, concentration not stated
[2] = Eterna round: R95, input ligand: microRNA oligo, concentration not stated
[3] = Eterna round: R95, input ligand: FMN 200 uM
[4] = Eterna round: R95, input ligand: none

Sequence | apparent KD of MS2 coat protein (input ligand: FMN 200 uM) | apparent KD of MS2 coat protein (input ligand: none) | apparent KD of MS2 coat protein [1] | apparent KD of MS2 coat protein [2] | apparent KD of MS2 coat protein [3] | apparent KD of MS2 coat protein [4]
UAUUAGCAAGCGAGAUCCUACAUGAGGAUCACCCAUGUGCUCGUCUUGUAAGGUACUGUGACGAAAGUCACGGUACC [Eli 91 v38] (Eterna round: R97, puzzle: Sensor, turn-off variant 1) | 16.5 nM | 15.6 nM | – | – | – | –
UAUUAGCAAGUAAGGUCCCACAUGAGGAUCACCCAUGUGCUCGUCUCCUCAGGUACGGAGCGGAAACUCCCGAUAUG [Sensor-V1 #92] (Eterna round: R97, puzzle: Sensor, turn-off variant 1) | 121 nM | 102 nM | – | – | – | –
UAUUAGCAAGUGAGAUCCGACAUGAGGAUCACCCAUGUGCUCGUCUUAUAAGGUAAUAUAAGAAAACUUAUAUUACC [Elimod 6 - Jieux - Sensor, turn-off variant 1] (Eterna round: R97, puzzle: Sensor, turn-off variant 1) | 207 nM | 233 nM | – | – | – | –
UAUUAGUAAGGAUAUGAGGCGUAGUACGAAAGUACUACGUCUCAGAAGGUACAUGAGGAUCACCCAUGUUCAUU [Mod of Fisker 4 - Jieux - Exclusion 4] (Eterna round: R97, puzzle: Exclusion 4) | 19.9 nM | 17.8 nM | – | – | – | –
UAUUCACAUGAGGAUCACCCAUGUCAGGAUAUAGUCGAUAUAUGGAAACAUAUAUCGACUAGAAGGGACUAGCG [Jieuxxlusion 12 - Jieux - Exclusion 1] (Eterna round: R97, puzzle: Exclusion 1) | 64.5 nM | 47.4 nM | – | – | – | –
UAUUCACAUGAGGAUCACCCAUGUCAGGAUAUGCUCGAUAUAUGGAAACAUAUAUCGAGCAGAAGGGACUAGCG [Jieuxxlusion 8 - Jieux - Exclusion 1] (Eterna round: R97, puzzle: Exclusion 1) | 98.7 nM | 41.2 nM | – | – | – | –
UAUUCUAGAUAGGAUAUACUUUUUUUUUUUUUCGUAGAAGGAUCUACAUGAGGAUCACCCAUGUUUUCAGCAGU [JR_E6_Sub012] (Eterna round: R96, puzzle: Exclusion 6) | 99.6 nM | 71.1 nM | 65.7 nM | – | – | –
UAUUCUAGAUAGGAUAUACUUUUUUUUUUUUUCGUAGAAGGAUCUACAUGAGGAUCACCCAUGUUUUCAGCAGU [JR_E6_Sub012] (puzzle: Exclusion 6) | – | – | – | 48.3 nM | – | –
UAUUGUUUUUUUUUAAAUUACAUGAGGAUCACCCAUGUUUUUUUUUUUUUGGUGAUUAUUUUUUGUCUUUUUUUUUU [Jieuxbot 037 - Jieux - Sensor v2, turn-off variant] (Eterna round: R96, puzzle: Sensor v2, turn-off variant) | 58.5 nM | 43.3 nM | 69 nM | – | – | –
UCAAGAAUAGGAUAUACAACAUGCCCGCUUCUUUGCAUCGCACAUGAGGAUCACCCAUGUAGAAGGGUUCUCUA [Exclusion-2-#16] (Eterna round: R97, puzzle: Exclusion 2) | 103 nM | 151 nM | – | – | – | –
UCAAGUAUGUAGGAUAUCGAUGUCUACGGACAUCGAGAAGGACGUACAUGAGGAUCACCCAUGUAACUUGCAUG [Exclusion 6 - B - 10:d] (Eterna round: R96, puzzle: Exclusion 6) | 238 nM | 283 nM | 144 nM | – | – | –
UCAAGUAUGUAGGAUAUCGAUGUCUACGGACAUCGAGAAGGACGUACAUGAGGAUCACCCAUGUAACUUGCAUG [Exclusion 6 - B - 10:d] (puzzle: Exclusion 6) | – | – | – | 79.4 nM | 37.2 nM | 108 nM
UCAAUACGGAAGGAUAUGCCGAAGCAUGCGCAGGCAGAAGGUCUGACAUGAGGAUCACCCAUGUUGGAGAUCAA [Eternabot (L2) Solution 21] (Eterna round: R97, puzzle: Exclusion 6) | 82.1 nM | 19.1 nM | – | – | – | –
UCAGCUUGUGUCAGGAUAUCCAGUCCGACGGGAGAGGAGAAGGGACAUGAGGAUCACCCAUGUAGGCGCCCUAC [Soerrecege] (Eterna round: R97, puzzle: Brourd's mod of Exclusion 4) | 63.8 nM | 461 nM | – | – | – | –
UCAGUUCUGCAAGGAUAUCGUCCUAGUUUGGUACGAGAAGGUGCUUUUGUUUUUUCCUUGUGUUGACAUGAGGAUCACCCAUGU [JL JR Sub53 mod] (Eterna round: R96, puzzle: Exclusion NG 1) | – | – | 28.4 nM | – | – | –
UCAUGUCCGGAGGAUAUGGCGCCCGUAAGGGCGCCAGAAGGCCGGACAUGAGGAUCACCCAUGUCGGCCUUCCC (Eterna round: R97, puzzle: Exclusion 6) | 22.1 nM | 28.4 nM | – | – | – | –

Sequence | apparent KD of MS2 coat protein (input ligand: FMN 200 uM) | apparent KD of MS2 coat protein (input ligand: none) | apparent KD of MS2 coat protein [1] | apparent KD of MS2 coat protein [2] | apparent KD of MS2 coat protein [3] | apparent KD of MS2 coat protein [4]
UCAUGUUUAGAGGAUAUGAUUACUCUAGAGUGAUCAGAAGGCUAGACAUGAGGAUCACCCAUGUCAGAACAUGG [Exclusion 6 - B - 17:c] (puzzle: Exclusion 6) | – | – | – | 21.5 nM | 27.5 nM | 29.1 nM
UCAUGUUUAGAGGAUAUGAUUACUCUAGAGUGAUCAGAAGGCUAGACAUGAGGAUCACCCAUGUCAUAACAUGA [Exclusion 6 - B - 16:a] (puzzle: Exclusion 6) | – | – | – | 85.7 nM | 56.3 nM | 127 nM
UCAUGUUUAGAGGAUAUGAUUACUUUUGAGUAAUCAGAAGGCUAGACAUGAGGAUCACCCAUGUCAUAACAUGA [Exclusion 6 - B - 15:d] (Eterna round: R96, puzzle: Exclusion 6) | 341 nM | 242 nM | 75.9 nM | – | – | –
UCAUGUUUAGAGGAUAUGAUUACUUUUGAGUAAUCAGAAGGCUAGACAUGAGGAUCACCCAUGUCAUAACAUGA [Exclusion 6 - B - 15:d] (puzzle: Exclusion 6) | – | – | – | 71.5 nM | – | –
UCCAAGUUUGUAGGAUAUACUCUCCUUUGGAGAGUAGAAGGACAUGAGGAUCACCCAUGUUGUAUAAAUUUGGGAUGUUCCUCG [random3] (Eterna round: R96, puzzle: Exclusion NG 1) | 122 nM | 91.8 nM | 51.3 nM | – | – | –
UCCACAUGAGGAUCACCCAUGUAAGGUGAGUAAAAGAAGAGGCAGGAUAUUGAAGCGACCUCGCCCAAGAAGGGCCUCACCAAA [Eternabot solution 11] (Eterna round: R96, puzzle: Exclusion NG 3) | 72.2 nM | 60.6 nM | 44.8 nM | – | – | –
UCCCAGCUAGGAUAUACAUGAGGAUCACCCAUGUCGAUCCACGGCACCCGAGUAUUGAGUAGAAGGAGUCAGGA [Eternabot (L2) Solution 69] (Eterna round: R97, puzzle: Exclusion 3) | 25.1 nM | 23.1 nM | – | – | – | –
UCCUCACAUGAGGAUCACCCAUGUUAGGAUAUCUUAUAGAGCUUGAGACAGUUCUUUAAGAGAAGGAACUGGGC [Exclusion 1 (MOD2.2 of Edarti)] (Eterna round: R97, puzzle: Exclusion 1) | 120 nM | 115 nM | – | – | – | –
UCCUCACAUGAGGAUCACCCAUGUUAGGAUAUUUAAUAGCGCGAAAGACAGUUCUGUAAGAGAAGGAACUGGGC [Edarti] (Eterna round: R97, puzzle: Exclusion 1) | 14.6 nM | 15 nM | – | – | – | –
UCCUCACUUGAGGAUCACCCAAGUCAGGAUAUUCACUGAACUGCGUAGCAGUUCGGCCGAAGAAGGGAUUCGGG [Lacequla] (Eterna round: R97, puzzle: Exclusion 1) | 54.8 nM | 107 nM | – | – | – | –
UCCUCGUCAGGAUAUCCACGGAAUAGCGGGAUACCGAGCGUGGAGAAGGGACAUGAGGAUCACCCAUGUAAAAU [Edlare] (puzzle: Exclusion 4) | – | – | – | 24.9 nM | – | –
UCCUUACUGGUCAGGAUAUACAGUCGCGGGUGGGUGUAGAAGGGACAUGAGGAUCACCCAUGUACGUUACAUCC [alecazam54h] (Eterna round: R97, puzzle: Brourd's mod of Exclusion 4) | 19.7 nM | 19.9 nM | – | – | – | –
UCGACGUCGUCAGGAUAUAGUUUUAAUGUCAUGCUUUUGUUCGUACAUGAGGAUCACCCAUGUGGCUAGAAGGGACUAAAGAUU [JR_ExcNG2_Sub014] (Eterna round: R96, puzzle: Exclusion NG 2) | 22.9 nM | 18.8 nM | 27 nM | – | – | –
UCGCUCCGUGUAGGAUAUCGCCGUUCCACUCGGCGAGAAGGACAUGAGGAUCACCCAUGUAUGUUAUUAUCACGUGUGGCGCGC [Design 53] (Eterna round: R96, puzzle: Exclusion NG 1) | 32 nM | 18.1 nM | 16.5 nM | – | – | –
UCGCUCCGUGUAGGAUAUCGCCGUUCUACUCGGCGAGAAGGACAUGAGGAUCACCCAUGUAUGUUAUUAUCACGUGUGGCGCGC [Design 54] (Eterna round: R96, puzzle: Exclusion NG 1) | – | – | 14.2 nM | – | – | –
